Data as given in PMC8749428.

How the values were obtained:
[1] = molecular target: PltC (untagged, His tag removed); test: crystal structure
[2] = molecular target: PltA-CdtB-His6 (Salmonella enterica serovar Typhi) (UniProt Q8Z6A7); test: pull-down
[3] = molecular target: PltB-Strep; test: SEC
[4] = molecular target: PltC-His6; test: SEC

PltC (untagged, His tag removed) (natural protein)
stoichiometry N [1]: 5
fold copurified relative to PltB [2]: 2 fold

PltB-Strep (natural protein)
stoichiometry N [3]: 5

PltC-His6 (natural protein)
stoichiometry N [4]: 5
